What was measured:
[1] = Binding affinities of ADIFAB2 compared with ADIFAB; conditions: greater than ADIFAB
Description: ADIFAB2 also has an altered spectral response, making it especially useful for measurements of FFAu in blood samples (Apple et al, Clinical Proteomics, (2004) 1:41-44, U.S. patent application Ser. No. 10/670,958). The wavelengths at the maximum intensities emitted by these fluorescently-labeled I-FABP's in the absence of FFA is about 420 to 480 nm. The emission wavelengths at the maximum intensities emitted by these fluorescently-labeled I-FABP's with FFA bound are between about 495 to 580 nm. Experiments typically involve measuring the fluorescence response within both emission maxima or at wavelengths for which the effect of interfering molecules such as hemoglobin can be eliminated as described in U.S. application Ser. No. 10/670958 and PCT/US2004/030521 and the calculation of the ratio ‘R’ of the two fluorescence intensities. The baseline value for this ratio, measured in the absence of analyte, is designated R0.

[2] = Probe fluorescence intensity change with UCB:BSA; format: binding

B1: ADIFAB2: acrylodan-derivatized rI-FABP with Ala substituted for Leu at position 72 (rI-FABP-L72A), SEQ ID NO: 4 (protein, listed as Rattus norvegicus)
chain: AFDGTWKVDRNENYEKFMEKMGINVVKRKLGAHDNLKLTITQEGNKFTVKESSNFRNIDVVFELGVDFAYSAADGTELTGTWTMEGNKLVGKFKRVDNGKELIAVREISGNELIQTYTYEGVEAKRIFKKDRGHHHHHH
modifications: acrylodan label; MUTAGEN (72)...(72) rat intestinal fatty acid binding protein with alanine substitution for leucine at position 72
[1]
  binding affinities relative to ADIFAB: about 10 fold
[2]; 1:1 UCB:BSA, 440 nm
  ΔI/Io 1:1 UCB:BSA 440 nm: −0.40
[2]; 1:1 UCB:BSA, 500 nm
  ΔI/Io 1:1 UCB:BSA 500 nm: −0.34
[2]; 1:2 UCB:BSA, 440 nm
  ΔI/Io 1:2 UCB:BSA 440 nm: −0.19
[2]; 1:2 UCB:BSA, 500 nm
  ΔI/Io 1:2 UCB:BSA 500 nm: −0.16
